Source: patent US20160200799A1

B1: Group 1 representative clone F080-227, Fab-PP-type antibody (Fab, V domains shown)
VH: QVQLQESGAEVKKPGSSVKVSCKASGGIFRRNAISWVRQAPGQGLEWMGGIIAIFGTANYAQKFQGRVTITADESTSTVYMELSSLRPEDTAVYYCARGPNYYENFFDYWGQGTLVTVSS
VL: DIVMTQSPSSLSASVGDRLDLTCRASQDIANSLAWYKQRPGKAPELLVFGASRLEGGVPSRFSGTRAGTDFTLTISSLQPEDLGTYFCQQYFSFPRTFGQGTTLDLR
B2: Group 39 representative clone F082-237, Fab-PP-type antibody (Fab, V domains shown)
VH: QVQLVQSGAEVKKPGSSVKVSCKASGGIFNKYGISWVRQAPGQGLEWMGGILAIFGTTNYAQKFQGRVTISADESSTTVYMELSSLTSEDTAVYYCARGNTYYSSYFDQWGQGTLVTVSS
VL: QSVLTQPPSVSVAPGQTATITCGGDKIGTGPVHWYQQMPGRAPVLLIYASTHRPSRIPERFSGSKSDNTATLSISGVGVGDEADYYCQMWDSSSVHPIVFGGGTKLTVLS
B3: Group 54 representative clone F083-354, Fab-PP-type antibody (Fab, V domains shown)
VH: QVQLVQSGSEVKKPGSSVKVSCKASGGIFNSYGISWVRQAPGQGLEWMGGILAIFGTTNYAQKFQGRVTITADDSSKTVYMELSSLTSEDTAVYYCARGSTYYSSYFDQWGQGTLVTVSS
VL: DIQMTQSPSSLSASVGDRVTITCRASQGIRNSLAWYQQKPGQVPKLLIYSATTLRSGVPYRFSGSGSGTDFTLTISGLQPEDVGTYFCHRYDSAPLTFGGGTRVALK
B4: Group 3 representative clone F081-281, Fab-PP-type antibody (Fab, V domains shown)
VH: QVQLVQSGSEVKKPGSSVKVSCSFKASGGIISKYAITWVRQAPGQGLEWMGGIIAIFGSTNYAQKFQGRLTITSDESTSTAYMELSSLTSEDTAVYYCGRGPHYYESHLDYWGQGTLVTVSS
VL: EIVLTQSPGTLSLSPGERATLSCRASQGMSSSFLAWYQQKPGQPPRLLISGASTRATGIPDRFSGSGSGTDFTLTINRLEPEDFAVYYCQQYGSSPRTFGQGTKVEIK
B5: Group 37 representative clone F083-311, Fab-PP-type antibody (Fab, V domains shown)
VH: QVQLVQSGSEVKKPGSSVKVSCKASGGIFRTNAISYVRQAPGQGLEWMGGITAIFGTPNYAQKFQGRVTIIADESTSTVYMELGSLTSEDTAVYYCATSGTYYVSYFDSWGQGTLVTVSS
VL: DIVMTQSPGTLTLSPGERATLSCRASQSLYSSHLAWYQQKPGQPPRLLIYGASTRAPGTPDRFSGSGSGTDFTLTITALDPEDSAVYYCQQYGSSPITFGQGTRLEIK
B6: Group 55 representative clone F083-305, Fab-PP-type antibody (Fab, V domains shown)
VH: EVQLVESGAEVKKPGSSVKVSCKASGSIFSNYAISWVRQAPGQGLEWMGGIVPMFGTTRFAQKFQGRVTITADESRSTAYMELNNLISEDTAVYYCARAPLIYNWYFDLWGRGTLVTVSS
VL: EIVLTQSPSFVSASVGDRVSITCRASQGISSWLAWYQQKPGKAPRLLIYGASNLQSGVPSRFSGSGSGTDYTLTINSLQPEDFATYYCQQARTFPVTFGQGTKLEIK
B7: Group 56 representative clone F083-318, Fab-PP-type antibody (Fab, V domains shown)
VH: EVQLVQSGAEVKKPGSSVKVSCQASGSIFSNYAINWVRQAPGQGLEWMGGIVPIFGTTRFAQKFQGRLTITADEPRSTAYMELNNLISEDTAVYYCARAPLIYNWYYDLWGRGTLVTVSS
VL: EIVLTQSPSSLSASVGDRVTITCRASQGISNYLAWYQQKPGKVPKLLIYAASTLQSGVPSRFSGSGSGTDFTLTISSLQPEDVATYYCQKYNSAPHTFGPGTKVDIK
B8: Group 42 representative clone F083-249, Fab-PP-type antibody (Fab, V domains shown)
VH: QVQLVQSGSEVKKPGSSVKVSCKASGVTFSSYAISWVRQAPGQGLEWMGGISPMFGTTRYAQKFQGRVTITADESTRTGFMELSSLRSGDTAVYYCARSPTYYPGALDMWGQGTTVTVSS
VL: DVVMTQSPSLLSASVGDRVTITCRASQAIANFVSWFQQKPGEAPKSLIHAASTLQGGVPPRFSGSGYGAVFTLTITNLQPEDFATYFCQQYNSLPFTFGPGTDVEVR
B9: Group 35 representative clone F082-117, Fab-PP-type antibody (Fab, V domains shown)
VH: QVQLVQSGSEVKKPGSSVKVSCKSSGGILRRSAISWVRQAPGQGLEWMGGILAIFGTTKYAQKFQGRITITADESTNTVHMELSSLRPDDTAVYYCAGGPHYYVSYFDSWGQGTLVTVSS
VL: DIQMTQSPATLSLSPGERATLSCRASQSVRSYLAWYQQKPGQAPRLLIYDASNRATGIPARFSGSGSGTEFTLTISRLEPEDFAVYYCQQRSNWLFTFGPGTKVDFK
B10: Group 48 representative clone F083-389, Fab-PP-type antibody (Fab, V domains shown)
VH: QVQLVQSGAEVKKPGSSVKVSCKASGDIFNKFAITWVRQAPGQGLEWMGGITALFATTSYAQKFQDRVTINWDESTTTAFMELSSLRFEDTAVYYCARGPNYYETYLDNWGQGTLVTVSS
VL: EIVLTQSPTILSASVGDRVTITCRASQSISKWLAWYQQKPGKVPKLLIYMASTLESGVPSRFSGSGSGSEFTLTISSLQPGDFATYYCQQYNSYPRTFGQGTKVEINV
B11: Group 52 representative clone F083-328, Fab-PP-type antibody (Fab, V domains shown)
VH: QVQLVQSGAEVKKPGSSVKLSCKASGGTLRSYALSWVRQAPGEGLEWMGGISAIFNTATYAQNVQGRVTITADESTNTFYLEVSSLRSDDTAVYYCATSGTYYVSFFDYWGQGTLVTVSS
VL: DIVLTQSPSTLSASVGDRVTLTCRASQSIGSLMAWYQQQPGKPPKLLIYRASNLETGVPSRFTGSGSGTEFALTISSLQPDDVGTYYCQHFKTFSRTFGQGTKVEIK
B12: Group 47 representative clone F083-308, Fab-PP-type antibody (Fab, V domains shown)
VH: QVQLVQSGAEVKKPGSSVKVSCKASGGIFRSHAISWVRQAPGQGLEWMGGIIAIFGTTHYAQQFQGRVTITADESTSTVYMELSTLRSEDTAVYYCARGPNYFESYFDNWGQGTLVTVSS
VL: EIVLTQSPATLSLSPGERATLSCRASQTISSYLAWYQQKPGQAPRLLIYGASNRATGIPARFSGSGSGTDFTLTINSLEPEDFAVYYCQQRSSWPPITFGQGTRLEIK

Columns and labels:
Assay in all cases: cell-based or functional assay
[1] = biological target: Influenza virus A/Panama/2007/1999 (H3N2) (Influenza A virus A/Panama/2007/1999 (H3N2))
[2] = biological target: Influenza virus A/Suita/1/2009pdm (H1N1 2009 pandemic) (Influenza A virus A/Suita/1/2009pdm (H1N1pdm))
[3] = biological target: Influenza virus A/California/7/2009pdm (H1N1pdm) (Influenza A virus A/California/7/2009pdm (H1N1pdm))
[4] = biological target: Influenza virus A/Brisbane/59/2007 (H1N1) (Influenza A virus A/Brisbane/59/2007 (H1N1))
[5] = biological target: Influenza virus A/Indonesia/5/2005/PR8-IBCDC-RG2 (H5N1) (Influenza A virus A/Indonesia/5/2005/PR8-IBCDC-RG2 (H5N1))

Binder | Neutralizing activity (%) at 100 µg/ml [1] [%] | Neutralizing activity (%) at 250 µg/ml [1] [%] | Neutralizing activity (%) at 100 µg/ml [2] [%] | Neutralizing activity (%) at 250 µg/ml [2] [%] | HI activity [3] [µg/mL] | HI activity [4] [µg/mL] | Neutralizing activity (%) at 100 µg/ml [4] [%] | Neutralizing activity (%) at 250 µg/ml [4] [%] | Neutralizing activity (%) at 100 µg/ml [5] [%] | Neutralizing activity (%) at 250 µg/ml [5] [%]
B1 | -0.7 | -0.7 | 100 | 100 | > 160 | > 160 | 96 | 98 | 67.6 | 52.9
B2 | -2.7 | 15.8 | 95.3 | 100 | > 160 | > 160 | 48.7 | 64.5 | 31.2 | 41.2
B3 | -0.7 | -11 | 100 | 94.2 | > 160 | > 160 | 96.1 | 100 | 66.4 | 80.7
B4 | -11.6 | -8.9 | 100 | 100 | > 160 | > 160 | 98 | 100 | 81.8 | 85.9
B5 | -8.9 | 5.5 | 93 | 100 | > 160 | > 160 | 100 | 100 | 90 | 97.1
B6 | -17.1 | -6.8 | 88.3 | 69.5 | > 160 | > 160 | 96.1 | 96.1 | 2.4 | 22.4
B7 | 7.5 | 7.5 | 13.5 | 27.9 | > 160 | > 160 | 84.2 | 92.1 | -9.5 | 1.7
B8 | 15.8 | 34.2 | 100 | 97.7 | > 160 | > 160 | 100 | 100 | 96.5 | 98.2
B9 | 3.4 | -4.8 | 100 | 100 | > 160 | > 160 | 100 | 100 | 94.1 | 95.9
B10 | -0.7 | 19.9 | -18.3 | 100 | > 160 | > 160 | 98 | 100 | 54.6 | 60.8
B11 | 9.6 | 5.5 | 100 | 100 | > 160 | > 160 | 100 | 100 | 86.9 | 93.2
B12 | 1.4 | -6.8 | 97.7 | 100 | > 160 | > 160 | 100 | 100 | 29.4 | 49.4
